Measured values published in patent US20100016275A1, “NOVEL COMPOUND 395” (priority 2008, published 2010).

Target: T1, human CXCR2 receptor (Homo sapiens, UniProt P25025)
T1 construct: expressed in transfected cells; host or cells: HEK293, stably transfected geneticin-resistant clones, vector RcCMV; membranes purified by sucrose gradient
T1 sequence (P25025 1-360): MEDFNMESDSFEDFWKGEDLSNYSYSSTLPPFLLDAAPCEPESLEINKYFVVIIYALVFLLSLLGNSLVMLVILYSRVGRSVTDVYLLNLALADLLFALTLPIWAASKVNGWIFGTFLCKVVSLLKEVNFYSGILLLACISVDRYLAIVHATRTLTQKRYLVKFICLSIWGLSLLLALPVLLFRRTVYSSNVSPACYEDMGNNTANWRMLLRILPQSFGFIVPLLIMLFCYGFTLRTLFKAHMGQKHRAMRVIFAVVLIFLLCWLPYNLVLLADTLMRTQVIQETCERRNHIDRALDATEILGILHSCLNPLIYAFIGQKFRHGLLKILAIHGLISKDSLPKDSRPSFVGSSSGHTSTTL
Test: Potency (pIC50) ligand binding assay, inhibition of [125I]IL-8 binding
Conditions: human CXCR2 membranes; read-out: Kd (equilibrium dissociation constant) determined for IL-8
Experimental: Potency (pIC50)—Ligand Binding Assay
The potency of antagonists at the human CXCR2 receptor was determined in vitro by quantifying their ability to inhibit specific binding of the CXCR2 radioligand, [^125I]interleukin-8 (IL-8), from membranes of HEK293 cells transfected with the human recombinant CXCR2 receptor.
Commercially sourced materials were obtained as follows: U-bottomed 96-well plates (3799) and 225 cm^2 vented cap culture flasks (3001) from Costar, Corning, Kent, UK. Multiscreen filter plates (0.45 μm; MAHV N45 50), vacuum manifold and pump (XF54 230 50) from Millipore, Watford, UK. N-[2-hydroxyethyl]piperazine-N′-[2ethanesulphonic acid] (HEPES; H-3375), ethylene diamine-tetraacetic acid (EDTA; E1644), magnesium chloride (M-9272), gelatin (G9382), dithiothreitol (DTT; D06052), sodium chloride (S3160/63), sodium hydroxide (B6506), bacitracin (B0125), inactivated foetal calf serum (FCS; CR0848) and DMSO Fluka Chemika (41648) from Sigma, Poole, UK. MicroScint-O (6013611) Packard BioScience, Pangboume, UK. Complete protease inhibitor cocktail tablets (1836145) from Boehringer s Mannheim, GmbH, Germany. Human recombinant [^125I]IL-8 74 TBq/mmol, 0.712 MBq/ml (IM249) from Amersham, Horsham UK. All other tissue culture reagents were purchased from Invitrogen, Paisley, Scotland, UK. All other chemical reagents were analytical grade from Fisher Scientific, Loughborough, UK
HEPES-buffered salt solution pH 7.4 containing HEPES (10 mM), potassium chloride (2.7 mM), sodium chloride (137 mM), potassium hydrogen phosphate (0.4 mM), calcium chloride (1.8 mM), magnesium chloride (1 mM), gelatin (0.1% (w/v)) and bacitracin (100 μg/ml).
HEPES-buffered Tyrode's solution pH 7.4 containing HEPES (10 mM), potassium chloride (2.7 mM), sodium chloride (137 mM), potassium hydrogen phosphate (0.4 mM), glucose (11 mM).
Hypotonic buffer: 3:1 mix of water: HEPES-buffered Tyrode's solution.
HEK293 cells were transfected with human CXCR2 (EMBL L19593) cDNA, previously cloned into the eukaryotic expression vector RcCMV. Cloned cell-lines were generated from stably-transfected geneticin-resistant populations. Cells were routinely grown to approximately 80% confluence in DMEM medium containing 10% (v/v) foetal calf serum and glutamine (2 mM) in a humidified incubator at 37° C., 5% CO2. Cells were harvested from flasks using Accutase™ at 37° C. for 3 to 5 minutes and resuspended on ice in hypotonic buffer at a density of 2×10^7 cells/mL. Membranes were prepared on ice by homogenisaton using a polytron tissue homogenizer set at 22000 rpm. The membrane fraction was purified by sucrose gradient centrifugation where homogenised cells were layered onto 41% (w/v) sucrose solution then centrifuged at 140000 g for 1 hour at 4° C. The membrane fraction was harvested at the interface, diluted 4-fold with HEPES-buffered Tyrode's solution and centrifuged at 100000 g for 20 minutes at 4° C. The membrane pellet was re-suspended at 1×10^8 cell equivalents/mL in HEPES-buffered Tyrode's solution and subsequently stored in aliquots at −80° C. All buffers used for membrane preparation and storage were made in the presence of 1 mM DTT and Complete Protease Inhibitor™ cocktail tablets, made up to manufacturers instructions.
Assays were performed in HEPES-buffered salt solution in 96-well plates. [^125I]IL-8 was used at a final concentration of 0.06 nM, pre-diluted from a 9.6 nM stock. The final DMSO concentration in the assay was 1% (v/v). Test compounds were prepared by serial dilution in DMSO followed by a ten-fold dilution into HEPES-buffered salt solution to give a working solution containing compound and 10% DMSO. The control for total binding (B0) of [^125I]IL-8 was determined in the absence of compound. The control for non-specific binding (NSB) was determined by measuring [^125I]IL-8 binding in the presence of (1R)-5-[[(3 -chloro-2-fluorophenyl)methyl]thio]-7-[[2-hydroxy-1-methylethyl]amino]thiazolo[4,5-d]pyrimidin-2(3H)-one dihydrate, sodium salt at 1 μM final concentration. […]

Kd: 1.2 nM
Substance: IL-8: interleukin-8, CXCR2 ligand, used as the human recombinant [125I] radioligand
